Experimental data from patent US20110165265A1, “TRAIL VARIANTS FOR TREATING CANCER” (FUNDACIÓ GENÒMICA (CRG), priority 2007, published 2011).

Experiments:
[1] = 125I-TRAIL biodistribution in tumor-bearing mice; type: in vivo
Protocol: Radioiodination of TRAIL was performed with a TRAIL solution of 1 mg/ml in a pH 7.4 TRIS buffer, containing 100 μM zinc sulphate and 10% glycerol. 45 μg TRAIL and 50 μg chloramine T (Merck, Amsterdam, The Netherlands) were allowed to react with 70 MBq ^125I-NaI in 0.05 M NaOH (pH 9.0, GE Healthcare, Eindhoven, The Netherlands) during 3 min at pH 8.0. The labeling reaction was terminated with sodium metabisulfite (Acros Organics, Geel, Belgium). Non-bound ^1251 was removed by gel filtration chromatography. The PD-10 column (Sephadex™ G-25M, Amersham Biosciences AB, Uppsala, Sweden) was eluted with TRIS buffer, containing 100 μM zinc sulphate, 10% glycerol and 0.5% human serum albumin. Nude mice with IP A2780-Luc xenografts were prepared, as described above.
The in vivo biodistribution study was conducted in 50 mice after establishment of A2780-Luc IP xenografts. ^125I-TRAIL (0.15 ml; 150 kBq, 0.5 μg) was administered IV through retro-orbital injection in 25 mice, and IP in 25 mice. At five time points after injection (t=15, 30, 60, 90 and 360 min) groups of 5 mice were sacrificed and organs and tissues were excised, rinsed for residual blood and weighed. Tumor tissue was additionally fixed in 10% buffered formalin for histological assessment. Samples were counted for radioactivity in a calibrated well-type LKB-1282-CompuGamma counter. Tissue activity was expressed as percentage of the injected dose/g tissue (% ID/g). Tumor-to- blood and tumor-to-muscle ratios were also calculated. All data were corrected for physical decay and compared with a known standard sample. Pharmacokinetic parameters were derived using the KINFIT module of the MW/PHARM computer program package (version 3.50, MediWare, Groningen, The Netherlands). Clearance rates of ^125I-TRAIL from the circulation were calculated using non-linear regression analysis.

[2] = system: A2780-Luc xenografts; assay: IP A2780-Luc xenografts, bioluminescence imaging
Protocol: Visualization of response to TRAIL, TRAIL-DR5, cisplatin and to the combination of either ligand with cisplatin by means of bioluminescence imaging. Nude mice were inoculated IP with 2×10^6 A2780-Luc cells. After 5 days treatment was initiated; cisplatin (4 mg/kg IP) or vehicle at day 5 and 12, TRAIL, TRAIL-DR5 (5 mg/kg IP) or vehicle at day 5-10 and 12-16, or a combination of TRAIL or TRAIL-DR5 with cisplatin.
Female nude mice (Hsd:Athymic Nude-nu) were obtained from Harlan Nederland (Horst, The Netherlands) at 6-8 weeks of age (˜21 g). Inoculation was performed after 10 days of acclimatization.
Imaging was conducted with the IVIS 100 series (Xenogen Corporation Alameda, Calif.), composed of a cooled charge-coupled device camera connected to a light tight black chamber. Before in vivo imaging animals were anesthetized with 4% isoflurane and injected IP with D-luciferin (150 mg/kg, Xenogen) reconstituted in sterile PBS. Mice were placed in prone position on a warmed stage (37° C.) in the imaging chamber, and grayscale reference images were obtained under dim illumination. Pseudocolor images representing bioluminescent intensity were acquired with Livinglmage software (version 2.50, Xenogen) 10 and 15 min after D-luciferin injection in complete darkness. These images were superimposed on the grayscale images for analysis with Igor Pro software (version 4.09, WaveMetrics, Lake Oswego, Oreg.). All bioluminescence imaging (BLI) data are depicted in radiance units (photons/sec/cm^2/sr) enabling absolute comparisons between bioluminescent images and represent final data obtained after subtraction of the background signal.

[3] = system: A2780 cells; assay: Microculture tetrazolium cytotoxicity assay in A2780; type: cell-based, human; conditions: A2780, 4 h pre-incubation; read-out: inhibitory concentration 20% (IC20)
Protocol: The microculture tetrazolium assay, performed as described earlier^36, was used to measure cytotoxicity. […] In cell viability assays assessing combination treatment with cisplatin, the cells were pre-incubated for 4 h (h) with 2.5 μM cisplatin (inhibitory concentration 20%-IC20), before addition of 0-25 ng/ml TRAIL or TRAIL-DR5.

[4] = system: TRAIL R1, R2, R3 and R4; assay: TRAIL receptor membrane expression by flow cytometry; type: cell-based
Protocol: Analysis of TRAIL-receptor membrane expression was performed by FACS analysis as described previously^35. For death receptor expression after cisplatin exposure, cells were exposed for 4 h, washed with PBS and incubated for 20 h in regular culture medium, after which FACS analysis was performed. Cells were subsequently washed twice with cold PBS containing 2% FCS and 0.1% sodium azide and incubated with phycoerythrin (PE)-conjugated mouse monoclonal antibodies against DR4, DR5, DcR1 and DcR2. Mouse PE-labeled IgG1 and IgG2B were used as isotype controls. All PE-labeled antibodies were purchased from R&D systems (Oxon, UK). Membrane receptor expression was analyzed with Winlist and Winlist 32 software (Verity Software House, Inc., Topsham, Me.) and is shown as mean fluorescent intensity (MFI) of all analyzed cells.
In order to determine the cell surface expression of each of the TRAIL receptors on A2780 carcinoma cells, cells were washed twice in PBS containing 1% BSA and then incubated with monoclonal antibodies to DR4, DR5, DcR1 or DcR2 (Alexis) for 40 min. After two wash steps with PBS/BSA, anti-mouse IgG-FITC (Sigma) secondary antibody was added for 30 min. All incubations were carried out on ice. Negative controls contained isotype control antibody. Cells were analyzed by a FacsCalibur flow cytometer.

[5] = system: p53; assay: p53 protein expression in cervical cancer cell lines; type: cell-based
Protocol: All three cervical cancer cell lines were treated with increasing concentration of Bortezomib to assess expression of p53 protein.

[6] = system: Colo205 tumors; assay: Colo205 tumors in athymic nude mice; type: in vivo; conditions: 40 and 200 mg/kg, 2×5 days
[7] = Colo205, 5 mM Aspirin or 10 μM 5-Flurouracil, 24 h
[8] = Lovo, 2.5 mM Aspirin or 10 μM 5-Flurouracil, 24 h
[9] = SW948, 2.5 mM Aspirin or 10 μM 5-Flurouracil, 24 h

In the case of 125I-TRAIL: radioiodinated TRAIL, the “cleaved caspase-3 staining in tumor tissue” value ([1]; 15 min after injection) is reported as “almost no cleaved caspase-3 was detected”, the “cleaved caspase-3 staining in tumor tissue” value ([1]; 360 min after injection) is reported as “increased cleaved caspase-3 staining” and the blood activity ([1]; IP, 15 min) is reported as 25.30±5.04 % ID/g. For the same molecule, the kidney uptake ([1]; IP, 15 min) was 19.83±1.38 % ID/g, the tumor activity ([1]; IP, 15 min) was 11.31±1.51 and the “tumor to blood ratio” value ([1]; IP, 15 min) was 0.48±0.03. For the same molecule, the blood activity ([1]; IP, 30 min) was 15.33±3.78 % ID/g, the kidney uptake ([1]; IP, 30 min) was 21.45±1.90 % ID/g and the tumor activity ([1]; IP, 60 min) was 12.91±3.29. The “tumor to blood ratio” value ([1]; IP, 60 min) was 0.55±0.06, the blood activity ([1]; IP, 90 min) was 23.74±6.85 % ID/g and the kidney uptake ([1]; IP, 90 min) was 17.87±1.28 % ID/g. The blood activity ([1]; IP, 360 min) was 8.26±1.74 % ID/g, the kidney uptake ([1]; IP, 360 min) was 4.45±0.31 % ID/g and the blood activity ([1]; IV, 15 min) was 43.29±11.04 % ID/g. The kidney uptake ([1]; IV, 15 min) was 199.2±40.69 % ID/g, the “tumor to blood ratio” value ([1]; IV, 15 min) was 0.13±0.02 and the blood activity ([1]; IV, 30 min) was 30.51±12.40 % ID/g. For the same molecule, the kidney uptake ([1]; IV, 30 min) was 126.6±49.68 % ID/g, the “tumor to blood ratio” value ([1]; IV, 60 min) was 0.38±0.04 and the tumor activity ([1]; IV, 60 min (maximum)) was 6.85±1.29. For the same molecule, the blood activity ([1]; IV, 90 min) was 7.52±1.22 % ID/g, the kidney uptake ([1]; IV, 90 min) was 12.73±2.47 % ID/g and the blood activity ([1]; IV, 360 min) was 2.63±0.56 % ID/g. For the same molecule, the kidney uptake ([1]; IV, 360 min) was 2.06±0.56 % ID/g.

For `N.N.[Cl][Pt][Cl]` [cisplatin, cis-diamminedichloroplatinum (II), reference compound], the “mean signal reduction as to vehicle treated mice” value ([2]; day 16, IP treatment) was 72.3%, the “light emission (bioluminescent signal)” value ([2]; day 16, mean±SEM) was 1.3×10^8±2.4×10^7 radiance units and the median survival ([2]; surrogate endpoint signal ≧3.1×10^8) was 28 days. For the same molecule, the IC20 [3] was 2500 nM and the TRAIL receptor expression ([4]; A2780) was “dose dependent upregulation of DR5 and DcR2 expression”.

In the case of `O=c1[nH]cc(F)c(=O)[nH]1` [5-Flurouracil], the TRAIL receptor expression [4, 7] is reported as “induction of all TRAIL receptors”, the TRAIL receptor expression [4, 8] is reported as “induction of TRAIL R2, R3 and R4 receptors” and the TRAIL receptor expression [4, 9] is reported as “did not lead to any induction of the TRAIL receptors”.

For `CC(C)C[C@H](NC(=O)[C@H](Cc1ccccc1)NC(=O)c1cnccn1)B(O)O` [Bortezomib], the TRAIL receptor expression ([4]; Caski, 5 nM, 24 h) was “increased receptor expression of TRAIL R2 and slight increase of TRAIL R3”, the TRAIL receptor expression ([4]; Hela, 10 nM, 24 h) was “increases receptor expression of all TRAIL receptors” and the TRAIL receptor expression ([4]; SIHA, 10 nM, 24 h) was “increases receptor expression of all TRAIL receptors”. For the same molecule, the “induction of p53 protein” value ([5]; Caski) was “can be seen at concentrations of 1 nM with largest induction seen at 5 and 10 nM”, the “induction of p53 protein” value ([5]; HELA) was “seen also at 5 and 10 nM, though relatively smaller” and the “induction of p53 protein” value ([5]; SiHa) was “can be seen at 5 and 10 nM”.

For `CC(=O)Oc1ccccc1C(=O)O` [aspirin], the TRAIL receptor expression [4, 7] was “induction TRAIL R2, R3 and R4 receptor expression”, the TRAIL receptor expression [4, 8] was “induction TRAIL R4 and to a lesser extent TRAIL R2 receptor expression” and the TRAIL receptor expression [4, 9] was “induction TRAIL-R2 expression only”. For the same molecule, the “effect on tumor growth, aspirin alone” value [6] was “no difference in effect” and the side effects [6] was “no side effects were found”.
